# Patent US20220025071A1
# Values joined by “and” are separate entries in the source; they are usually repeats but may differ in a detail not shown here. Equal entries are not always repeated.
# Tests used:
# [1] = biological target: SARS-CoV-2 spike protein, N439K variant (pseudovirus RVP-703) (SARS-CoV-2) (UniProt P0DTC2); assay: cell-based or functional assay
# [2] = biological target: SARS-CoV-2 spike protein, South African Δ3 B.1.351 variant (pseudovirus RVP-724) (SARS-CoV-2) (UniProt P0DTC2); assay: cell-based or functional assay
substance,measurement,setting,value
"REGN10987 (Imdevimab, biosimilar version) (antibody)","EC50 (pM) Neutralization, N439K",[1],2260 pM and 2220 pM
same,fold less potent than REGN10933 in pseudovirus neutralization,[1],1000 fold
same,"EC50 (pM) Neutralization, South Africa B.1.351",[2],2.48 pM and 2.37 pM
